Measurements reported in paper doi:10.1101/2025.08.07.668011, “High-Speed AFM Reveals IDR-Mediated Structural Plasticity of EML4-ALK Modulated by ALK Inhibitors” (bioRxiv, 2025).
Several values for one entry are separate records, joined by “and”; a condition that tells them apart may be missing. Equal values may be shown once.

Target: the molecule itself
Experiment: high-speed atomic force microscopy (HS-AFM); purified protein (approximately 3 nM) deposited on mica for 10 min, rinsed, imaged in 1/10 diluted PBS in tapping mode; oligomeric state from total pixel density, number of globules and behaviour in time-lapse images; molecules counted as monomer, dimer or trimer in broad fields; formation and dissociation seen in real time (reversible)

B1: EML4-ALK variant-1 (v1, E13:A20) (natural protein, human, UniProt Q9HC35 1-496, looked up)
chain: MDGFAGSLDDSISAASTSDVQDRLSALESRVQQQEDEITVLKAALADVLRRLAISEDHVASVKKSVSSKGQPSPRAVIPMSCITNGSGANRKPSHTSAVSIAGKETLSSAAKSGTEKKKEKPQGQREKKEESHSNDQSPQIRASPSPQPSSQPLQIHRQTPESKNATPTKSIKRPSPAEKSHNSWENSDDSRNKLSKIPSTPKLIPKVTKTADKHKDVIINQEGEYIKMFMRGRPITMFIPSDVDNYDDIRTELPPEKLKLEWAYGYRGKDCRANVYLLPTGKIVYFIASVVVLFNYEERTQRHYLGHTDCVKCLAIHPDKIRIATGQIAGVDKDGRPLQPHVRVWDSVTLSTLQIIGLGTFERGVGCLDFSKADSGVHLCIIDDSNEHMLTVWDWQKKAKGAEIKTTNEVVLAVEFHPTDANTIITCGKSHIFFWTWSGNSLTRKQGIFGKYEKPKFVQCLAFLGNGDVLTGDSGGVMLIWSKTTVEPTPGKGPKVYRRKHQELQAMQMELQSPEYKLSKLRTSTIMTDYNPNYCFAGKTSSISDLKEVPRKNITLIRGLGHGAFGEVYEGQVSGMPNDPSPLQVAVKTLPEVCSEQDELDFLMEALIISKFNHQNIVRCIGVSLQSLPRFILLELMAGGDLKSFLRETRPRPSQPSSLAMLDLLHVARDIACGCQYLEENHFIHRDIAARNCLLTCPGPGRVAKIGDFGMARDIYRASYYRKGGCAMLPVKWMPPEAFMEGIFTSKTDTWSFGVLLWEIFSLGYMPYPSKSNQEVLEFVTSGGRMDPPKNCPGPVYRIMTQCWQHQPEDRPNFAIILERIEYCTQDPDVINTALPIEYGPLVEEEEKVPVRPKDPEGVPPLLVSQQAKREEERSPAAPPPLPTTSSGKAAKKPTAAEISVRVPRGPAVEGGHVNMAFSQSNPPSELHKVHGSRNKPTSLWNPTYGSWFTEKPTKKNNPIAKKEPHDRGNLGLEGSCTVPPNVATGRLPGASLLLEPSSLTANMKEVPLFRLRHFPCGNVNYGYQQQGLPLEAATAPGAGHYEDTILKSKNSMNQPGP
notes: EML4, N-terminal part up to exon 13 (E13:A20): CC/TD domain, basic region, part of the TAPE domain (HELP, WD repeats); ALK, from exon 20 (A20) to the C-terminus, residues 1058-1620, holds the tyrosine kinase domain; ENLYFQ probably stays; also called EML4-ALK v1; source: Expi293F, transfected, purified (anti-FLAG M2 gel, TEV protease and His-tag beads, Superdex 200 SEC); not shown: His tag …
ratio of dimers: 15% | ratio of trimers: 9% | stoichiometry N: 2 and 3
